Data on 75 variants can be found in paper PMC12102759 (2025).

B1: PEX5 peptide 240-255 (Peroxisomal targeting signal 1 receptor), 16-mer library wild type / PEX14 Pex14 (PEX14 PEX14, residues 16-84) (parent complex)
chain 1: AEQWAAEFIQQQGTSD
chain 2: TPGSENVLPREPLIATAVKFLQNSRVRQSPLATRRAFLKKKGLTDEEIDMAFQQSGTAADEPSSLGPAT

Variants of B1 are the subject of this assay. The assay is described as follows: proteomic peptide phage display deep mutational scan (ProP-PD DMS): M13 P8 16-mer library selected against immobilised GST-tagged bait for four days (rounds), NGS of the eluted pools per day and pseudo-replica; bait immobilised on MaxiSorp plates (10 µg), library pre-cleared on GST, 2 h binding at 4 °C, five washes; one round per day, days 1-4; value from days 2 and 3.
On to chain 1 Q11S, for which the screen value is 0.000902 average fractional NGS count over selection days 2 and 3 (reads of this peptide / all reads for the bait, averaged over ….
Consider chain 1 Q11H, for which the screen value is 0.00664 average fractional NGS count over selection days 2 and 3 (reads of this peptide / all reads for the bait, averaged over ….
Take chain 1 Q11W: the screen value is 0.000954 average fractional NGS count over selection days 2 and 3 (reads of this peptide / all reads for the bait, averaged over ….
For chain 1 Q11G the value was 0.00455 average fractional NGS count over selection days 2 and 3 (reads of this peptide / all reads for the bait, averaged over …; for chain 1 Q11K, 0.000704 average fractional NGS count over selection days 2 and 3 (reads of this peptide / all reads for the bait, averaged over ….
As for chain 1 Q11I, the screen value is 0.00199 average fractional NGS count over selection days 2 and 3 (reads of this peptide / all reads for the bait, averaged over ….
chain 1 Q11V: the screen value is 0.0012 average fractional NGS count over selection days 2 and 3 (reads of this peptide / all reads for the bait, averaged over ….
chain 1 Q11L: the screen value was 0.0026 average fractional NGS count over selection days 2 and 3 (reads of this peptide / all reads for the bait, averaged over ….
Regarding chain 1 Q12D, the screen value was 0.00045 average fractional NGS count over selection days 2 and 3 (reads of this peptide / all reads for the bait, averaged over ….
For chain 1 Q12M the value was 0.000477 average fractional NGS count over selection days 2 and 3 (reads of this peptide / all reads for the bait, averaged over ….
Turning to chain 1 Q12S, the screen value is 0.00474 average fractional NGS count over selection days 2 and 3 (reads of this peptide / all reads for the bait, averaged over ….
Consider chain 1 Q12L, for which the screen value was 0.00232 average fractional NGS count over selection days 2 and 3 (reads of this peptide / all reads for the bait, averaged over ….
Turning to chain 1 Q12V, the screen value was 0.0011 average fractional NGS count over selection days 2 and 3 (reads of this peptide / all reads for the bait, averaged over ….
On to chain 1 Q12I, for which the screen value is 0.00133 average fractional NGS count over selection days 2 and 3 (reads of this peptide / all reads for the bait, averaged over ….
The result for chain 1 Q12F reads 0.00145 average fractional NGS count over selection days 2 and 3 (reads of this peptide / all reads for the bait, averaged over …; that for chain 1 Q12P, 0.00104 average fractional NGS count over selection days 2 and 3 (reads of this peptide / all reads for the bait, averaged over …; that for chain 1 Q12Y, 0.00103 average fractional NGS count over selection days 2 and 3 (reads of this peptide / all reads for the bait, averaged over ….
With chain 1 Q12W, the screen value was 0.000968 average fractional NGS count over selection days 2 and 3 (reads of this peptide / all reads for the bait, averaged over ….
Take chain 1 Q12G: the screen value was 0.00219 average fractional NGS count over selection days 2 and 3 (reads of this peptide / all reads for the bait, averaged over ….
For chain 1 Q12E the value was 0.00182 average fractional NGS count over selection days 2 and 3 (reads of this peptide / all reads for the bait, averaged over …; for chain 1 S15T, 0.00362 average fractional NGS count over selection days 2 and 3 (reads of this peptide / all reads for the bait, averaged over …; for chain 1 S15V, 0.000997 average fractional NGS count over selection days 2 and 3 (reads of this peptide / all reads for the bait, averaged over ….
Take chain 1 S15L: the screen value is 0.00083 average fractional NGS count over selection days 2 and 3 (reads of this peptide / all reads for the bait, averaged over ….
Regarding chain 1 S15Y, the screen value was 0.000382 average fractional NGS count over selection days 2 and 3 (reads of this peptide / all reads for the bait, averaged over ….
Consider chain 1 S15G, for which the screen value was 0.00221 average fractional NGS count over selection days 2 and 3 (reads of this peptide / all reads for the bait, averaged over ….
Take chain 1 S15R: the screen value was 0.00217 average fractional NGS count over selection days 2 and 3 (reads of this peptide / all reads for the bait, averaged over ….
Turning to chain 1 S15Q, the screen value was 0.0029 average fractional NGS count over selection days 2 and 3 (reads of this peptide / all reads for the bait, averaged over ….
Consider chain 1 G13M, for which the screen value was 0.000519 average fractional NGS count over selection days 2 and 3 (reads of this peptide / all reads for the bait, averaged over ….
Regarding chain 1 G13E, the screen value was 0.000748 average fractional NGS count over selection days 2 and 3 (reads of this peptide / all reads for the bait, averaged over ….
On to chain 1 G13P, for which the screen value is 0.00036 average fractional NGS count over selection days 2 and 3 (reads of this peptide / all reads for the bait, averaged over ….
The result for chain 1 G13K reads 0.000992 average fractional NGS count over selection days 2 and 3 (reads of this peptide / all reads for the bait, averaged over …; that for chain 1 G13A, 0.00173 average fractional NGS count over selection days 2 and 3 (reads of this peptide / all reads for the bait, averaged over ….
The result for chain 1 G13Q reads 0.000525 average fractional NGS count over selection days 2 and 3 (reads of this peptide / all reads for the bait, averaged over ….
With chain 1 G13S, the screen value was 0.00151 average fractional NGS count over selection days 2 and 3 (reads of this peptide / all reads for the bait, averaged over ….
As for chain 1 G13Y, the screen value is 0.000307 average fractional NGS count over selection days 2 and 3 (reads of this peptide / all reads for the bait, averaged over ….
On to chain 1 G13T, for which the screen value was 0.000744 average fractional NGS count over selection days 2 and 3 (reads of this peptide / all reads for the bait, averaged over ….
As to chain 1 A6R, the screen value is 0.00273 average fractional NGS count over selection days 2 and 3 (reads of this peptide / all reads for the bait, averaged over ….
Regarding chain 1 A6F, the screen value is 0.00131 average fractional NGS count over selection days 2 and 3 (reads of this peptide / all reads for the bait, averaged over ….
On to chain 1 A6D, for which the screen value was 0.0111 average fractional NGS count over selection days 2 and 3 (reads of this peptide / all reads for the bait, averaged over ….
For chain 1 A6S, the screen value was 0.00105 average fractional NGS count over selection days 2 and 3 (reads of this peptide / all reads for the bait, averaged over ….
The result for chain 1 A6I reads 0.00623 average fractional NGS count over selection days 2 and 3 (reads of this peptide / all reads for the bait, averaged over …; that for chain 1 A6V, 0.00173 average fractional NGS count over selection days 2 and 3 (reads of this peptide / all reads for the bait, averaged over ….
On to chain 1 A6T, for which the screen value was 0.0091 average fractional NGS count over selection days 2 and 3 (reads of this peptide / all reads for the bait, averaged over ….
On to chain 1 A6Y, for which the screen value was 0.00438 average fractional NGS count over selection days 2 and 3 (reads of this peptide / all reads for the bait, averaged over ….
As to chain 1 A6N, the screen value was 0.00234 average fractional NGS count over selection days 2 and 3 (reads of this peptide / all reads for the bait, averaged over ….
The result for chain 1 A6G reads 0.00471 average fractional NGS count over selection days 2 and 3 (reads of this peptide / all reads for the bait, averaged over …; that for chain 1 A5S, 0.00197 average fractional NGS count over selection days 2 and 3 (reads of this peptide / all reads for the bait, averaged over …; that for chain 1 A5W, 0.000742 average fractional NGS count over selection days 2 and 3 (reads of this peptide / all reads for the bait, averaged over ….
On to chain 1 A5E, for which the screen value was 0.0005 average fractional NGS count over selection days 2 and 3 (reads of this peptide / all reads for the bait, averaged over ….
On to chain 1 A5L, for which the screen value is 0.00177 average fractional NGS count over selection days 2 and 3 (reads of this peptide / all reads for the bait, averaged over ….
The result for chain 1 A5M reads 0.00306 average fractional NGS count over selection days 2 and 3 (reads of this peptide / all reads for the bait, averaged over …; that for chain 1 A5H, 0.0461 average fractional NGS count over selection days 2 and 3 (reads of this peptide / all reads for the bait, averaged over …; that for chain 1 A5N, 0.00753 average fractional NGS count over selection days 2 and 3 (reads of this peptide / all reads for the bait, averaged over ….
On to chain 1 A5D, for which the screen value is 0.00199 average fractional NGS count over selection days 2 and 3 (reads of this peptide / all reads for the bait, averaged over ….
Turning to chain 1 A5R, the screen value is 0.00499 average fractional NGS count over selection days 2 and 3 (reads of this peptide / all reads for the bait, averaged over ….
chain 1 A5K: the screen value was 0.00108 average fractional NGS count over selection days 2 and 3 (reads of this peptide / all reads for the bait, averaged over ….
Take chain 1 Q3D: the screen value is 0.000539 average fractional NGS count over selection days 2 and 3 (reads of this peptide / all reads for the bait, averaged over ….
On to chain 1 Q3M, for which the screen value is 0.002 average fractional NGS count over selection days 2 and 3 (reads of this peptide / all reads for the bait, averaged over ….
In the case of chain 1 Q3V, the screen value was 0.000961 average fractional NGS count over selection days 2 and 3 (reads of this peptide / all reads for the bait, averaged over ….
As to chain 1 Q3N, the screen value was 0.00292 average fractional NGS count over selection days 2 and 3 (reads of this peptide / all reads for the bait, averaged over ….
The result for chain 1 Q3H reads 0.00576 average fractional NGS count over selection days 2 and 3 (reads of this peptide / all reads for the bait, averaged over …; that for chain 1 Q3L, 0.00235 average fractional NGS count over selection days 2 and 3 (reads of this peptide / all reads for the bait, averaged over …; that for chain 1 Q3P, 0.00138 average fractional NGS count over selection days 2 and 3 (reads of this peptide / all reads for the bait, averaged over ….
The result for chain 1 Q3R reads 0.000498 average fractional NGS count over selection days 2 and 3 (reads of this peptide / all reads for the bait, averaged over ….
Take chain 1 Q3G: the screen value was 0.000648 average fractional NGS count over selection days 2 and 3 (reads of this peptide / all reads for the bait, averaged over ….
Turning to chain 1 Q3W, the screen value was 0.00112 average fractional NGS count over selection days 2 and 3 (reads of this peptide / all reads for the bait, averaged over ….
The result for chain 1 T14E reads 0.000967 average fractional NGS count over selection days 2 and 3 (reads of this peptide / all reads for the bait, averaged over …; that for chain 1 T14Q, 0.000835 average fractional NGS count over selection days 2 and 3 (reads of this peptide / all reads for the bait, averaged over …; that for chain 1 T14I, 0.00075 average fractional NGS count over selection days 2 and 3 (reads of this peptide / all reads for the bait, averaged over ….
Consider chain 1 T14H, for which the screen value was 0.00166 average fractional NGS count over selection days 2 and 3 (reads of this peptide / all reads for the bait, averaged over ….
Turning to chain 1 T14G, the screen value was 0.000345 average fractional NGS count over selection days 2 and 3 (reads of this peptide / all reads for the bait, averaged over ….
As for chain 1 T14A, the screen value is 0.00163 average fractional NGS count over selection days 2 and 3 (reads of this peptide / all reads for the bait, averaged over ….
Take chain 1 T14P: the screen value is 0.00162 average fractional NGS count over selection days 2 and 3 (reads of this peptide / all reads for the bait, averaged over ….
As for chain 1 T14F, the screen value is 0.00226 average fractional NGS count over selection days 2 and 3 (reads of this peptide / all reads for the bait, averaged over ….
For chain 1 T14N the value was 0.000434 average fractional NGS count over selection days 2 and 3 (reads of this peptide / all reads for the bait, averaged over ….
